# Results published in patent EP4714976A1.
# Where a chain is given by its changes, count along the chain named.
# B1: 3C7 scFv displayed on phage (scFv)
# scFv: EIQLQQSGAELVKPGASVKMSCKASGYIFRNYYIHWVKRTPGQGLEWIGAIYPDNGDTSYNQRFKVKATLTADTSSSTAYMQLSSLTSEDSAVYYCARAFTYWGQGTTLTVSSGGGGSGGGGSGGGGSDIQMIQSPASLSASVGETVTITCGASENIYGALNWYQRKQGKSPQLLIYGATNLADGMSSRFSGSGSGRQYSLKISSLHPDDVATYYCQNVLSTPYTFGGGTKLEIK
# B2: 3B7 scFv displayed on phage (scFv)
# scFv: EVQLQQSGAELVKPGASVKMSCKASGYTFRYYNMHWVKRTPGQGLEWIGLIYPDNGDTSYNQKFKGKATLTADTSSSTAYMQLSSLTSEDSAVYYCARGGFDYWGQGTTLTVSSGGGGSGGGGSGGGGSDIQMTQSPASLSASVGETVTITCGASENIYGALNWYQRKQGKSPQLLIYGATNLADGMSSRFSGSGSGRQYSLKISSLHPDDVATYYCQNVLSTPYTFGGGTKLELK
# B3: 3C9 scFv displayed on phage (scFv)
# scFv: B2 scFv with V2I, T28I, F101L, T134I, L235I
# B4: 3F5 scFv-Fc (Fc fusion)
# chain: EIQLQQSGAELVKPGASVKMSCKASGYTFRYYNMHWVKRTPGQGLEWIGLIYPDNGDTSYNQKFKGKATLTADTSSSTAYMQLSSLTSEDSAVYYCARGGLDYWGQGTTLTVSSGGGGSGGGGSGGGGSDIVLTQSPASLSASVGETVTITCGASENIYGALNWYQRKQGKSPQLLIYGATNLADGMSSRFSGSGSGRQYSLKISSLHPDDVATYYCQNVLSTPYTFGGGTKLEIKESKYGPPCPPCPAPEAAGGPSVFLFPPKPKDTLMISRTPEVTCVVVDVSQEDPEVQFNWYVDGVEVHNAKTKPREEQFNSTYRVVSVLTVLHQDWLNGKEYKCKVSNKGLPSSIEKTISKAKGQPREPQVYTLPPSQEEMTKNQVSLTCLVKGFYPSDIAVEWESNGQPENNYKTTPPVLDSDGSFFLYSKLTVDKSRWQEGNVFSCSVMHEALHNHYTQKSLSLSLG
# B5: 3A12 scFv-Fc (Fc fusion)
# chain: EVQLQQSGAELVKPGASVKMSCKASGYTFSFYNVHWVRQTPGQGLEWIGLIYPDNGDTSYNQKFKAKATLTADKSSSAAYMQLSSLTSEDSAVYYCARGGFDYWGQGTSLTVSSGGGGSGGGGSGGGGSDIVMTQSHKFMSTSVGDRVNITCKASQDVSTAVAWYQQKPGQSPKLLIYSASYRYSGVPDRFTGSGSGTDFTFTISSVQAEDLAVYYCQQHYSTPYTFGGGTKLEMKESKYGPPCPPCPAPEAAGGPSVFLFPPKPKDTLMISRTPEVTCVVVDVSQEDPEVQFNWYVDGVEVHNAKTKPREEQFNSTYRVVSVLTVLHQDWLNGKEYKCKVSNKGLPSSIEKTISKAKGQPREPQVYTLPPSQEEMTKNQVSLTCLVKGFYPSDIAVEWESNGQPENNYKTTPPVLDSDGSFFLYSKLTVDKSRWQEGNVFSCSVMHEALHNHYTQKSLSLSLG
# B6: 2B1 scFv-Fc (Fc fusion)
# chain: EVQLQQSGAELVKPGASVKMSCKASGYTFASYNLHWVKQTPGQGLEWIGLIYPENGDTSYNQKFKGKATLTADKSSSTAYIQLSSLTSEDSAVYFCARGGFDYWGQGTSLTVSSGGGGSGGGGSGGGGSDIQMIQSPASLSVSVGETVTITCRASENIYSNLAWYQQKQGKSPQLLVYNAKTLADGVPSRFSGSGSGTQYSLKINSLQPEDFGSYYCQHFWSTPYTFGGGTKLEIKESKYGPPCPPCPAPEAAGGPSVFLFPPKPKDTLMISRTPEVTCVVVDVSQEDPEVQFNWYVDGVEVHNAKTKPREEQFNSTYRVVSVLTVLHQDWLNGKEYKCKVSNKGLPSSIEKTISKAKGQPREPQVYTLPPSQEEMTKNQVSLTCLVKGFYPSDIAVEWESNGQPENNYKTTPPVLDSDGSFFLYSKLTVDKSRWQEGNVFSCSVMHEALHNHYTQKSLSLSLG
# B7: 3C7 scFv-Fc (Fc fusion)
# chain: EIQLQQSGAELVKPGASVKMSCKASGYIFRNYYIHWVKRTPGQGLEWIGAIYPDNGDTSYNQRFKVKATLTADTSSSTAYMQLSSLTSEDSAVYYCARAFTYWGQGTTLTVSSGGGGSGGGGSGGGGSDIQMIQSPASLSASVGETVTITCGASENIYGALNWYQRKQGKSPQLLIYGATNLADGMSSRFSGSGSGRQYSLKISSLHPDDVATYYCQNVLSTPYTFGGGTKLEIKESKYGPPCPPCPAPEAAGGPSVFLFPPKPKDTLMISRTPEVTCVVVDVSQEDPEVQFNWYVDGVEVHNAKTKPREEQFNSTYRVVSVLTVLHQDWLNGKEYKCKVSNKGLPSSIEKTISKAKGQPREPQVYTLPPSQEEMTKNQVSLTCLVKGFYPSDIAVEWESNGQPENNYKTTPPVLDSDGSFFLYSKLTVDKSRWQEGNVFSCSVMHEALHNHYTQKSLSLSLG
# B8: 3E7 scFv-Fc (Fc fusion)
# chain: QVQLQQSGAELVKPGASVKMSCKASGYTFTIYNIHWVRQTPGQGLEWIGLIYPDNGDTSYNQKFKAKATLTADKSSSTAYMQLSSLTSEDSAVYYCARGGFDYWGQGTTLTVSSGGGGSGGGGSGGGGSNIVMTQSQKFMSTSVGDRVSVTCKASQNVGTNVAWYQQKPGQSPKALIYSASYRYSGVPDRFTGSGSGTDFTLTISGVQAEDLADYYCQQHYNTPYTFGGGTKLEIKESKYGPPCPPCPAPEAAGGPSVFLFPPKPKDTLMISRTPEVTCVVVDVSQEDPEVQFNWYVDGVEVHNAKTKPREEQFNSTYRVVSVLTVLHQDWLNGKEYKCKVSNKGLPSSIEKTISKAKGQPREPQVYTLPPSQEEMTKNQVSLTCLVKGFYPSDIAVEWESNGQPENNYKTTPPVLDSDGSFFLYSKLTVDKSRWQEGNVFSCSVMHEALHNHYTQKSLSLSLG
# B9: 3F10 scFv-Fc (Fc fusion)
# chain: EVQLQQSGAELVKPGASVKMSCKASGYTFSFYNIHWVRQTPGQGLEWIGLIYPDNGDTSYNQKFKAKATLTADKSSSTAYMQLSSLTSEDSAVYYCARGGFDYWGQGTTLTVSSGGGGSGGGGSGGGGSDVLMTQSPASLSASVGETVTITCGASENIYGALNWYQRKQGKSPQLLIYGATNLADGMSSRFSGSGSGRQYSLKISSLHPDDVATYYCQNVLSTPYTFGGGTKLEIKESKYGPPCPPCPAPEAAGGPSVFLFPPKPKDTLMISRTPEVTCVVVDVSQEDPEVQFNWYVDGVEVHNAKTKPREEQFNSTYRVVSVLTVLHQDWLNGKEYKCKVSNKGLPSSIEKTISKAKGQPREPQVYTLPPSQEEMTKNQVSLTCLVKGFYPSDIAVEWESNGQPENNYKTTPPVLDSDGSFFLYSKLTVDKSRWQEGNVFSCSVMHEALHNHYTQKSLSLSLG
# Biological target: extracellular domain of the FGFR2b protein (NP_075259.4) (UniProt P21802)
# Experiment: phage ELISA
# extracellular domain of the FGFR2b protein (NP_075259.4), sequence (P21802 other isoform, or with tags, fused parts or gaps): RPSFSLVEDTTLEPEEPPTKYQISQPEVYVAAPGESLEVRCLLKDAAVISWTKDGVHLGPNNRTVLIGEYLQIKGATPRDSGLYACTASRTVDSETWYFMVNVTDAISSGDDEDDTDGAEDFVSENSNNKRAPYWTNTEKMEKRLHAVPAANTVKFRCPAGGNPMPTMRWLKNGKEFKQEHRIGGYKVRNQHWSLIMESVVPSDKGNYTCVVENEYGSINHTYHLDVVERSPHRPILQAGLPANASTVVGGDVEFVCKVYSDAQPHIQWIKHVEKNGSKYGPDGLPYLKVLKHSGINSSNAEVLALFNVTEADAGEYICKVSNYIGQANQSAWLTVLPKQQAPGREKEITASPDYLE
row,Binder,OD (450 nm) value
1,B1,2.02
2,B2,2.03
3,B3,2.08

# Biological target: recombinant mouse FGFR2b (mouse) (UniProt P21803)
# Experiment: ELISA, antibody 1ug/mL
# recombinant mouse FGFR2b (mouse), sequence (P21803 22-377): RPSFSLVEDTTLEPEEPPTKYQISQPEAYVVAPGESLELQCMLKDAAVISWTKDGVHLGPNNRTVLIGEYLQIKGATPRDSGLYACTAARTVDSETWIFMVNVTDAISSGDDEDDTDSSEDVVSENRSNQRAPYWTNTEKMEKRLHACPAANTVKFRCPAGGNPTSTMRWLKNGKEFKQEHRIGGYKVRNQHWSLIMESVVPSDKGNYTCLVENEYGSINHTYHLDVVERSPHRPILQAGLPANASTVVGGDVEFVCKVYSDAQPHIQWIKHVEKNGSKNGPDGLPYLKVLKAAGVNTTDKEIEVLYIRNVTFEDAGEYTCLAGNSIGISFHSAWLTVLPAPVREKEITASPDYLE
row,Binder,OD (450 nm) value
1,B4,2.38
2,B5,2.91
3,B6,2.72
4,B7,3.1
5,B8,2.29
6,B9,2.87

# Biological target: FGFR1 (acro) (UniProt P11362)
# Experiment: ELISA, antibody 10 µg/mL
# FGFR1 (acro), sequence (P11362 22-376): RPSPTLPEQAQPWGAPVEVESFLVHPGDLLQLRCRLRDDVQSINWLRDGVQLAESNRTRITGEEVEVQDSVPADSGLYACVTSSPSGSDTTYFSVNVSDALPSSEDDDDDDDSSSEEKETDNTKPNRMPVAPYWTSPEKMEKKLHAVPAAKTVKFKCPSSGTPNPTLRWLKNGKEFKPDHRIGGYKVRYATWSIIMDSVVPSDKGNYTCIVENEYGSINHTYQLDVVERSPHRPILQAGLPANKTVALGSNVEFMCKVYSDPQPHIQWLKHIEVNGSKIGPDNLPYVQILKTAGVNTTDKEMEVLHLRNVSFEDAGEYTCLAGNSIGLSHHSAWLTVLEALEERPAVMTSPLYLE
row,Binder,OD (450 nm) value
1,B4,0.108
2,B5,0.076
3,B6,0.076
4,B7,0.077
5,B8,0.093
6,B9,0.086

# Biological target: recombinant mouse FGFR2b (mouse) (UniProt P21803)
# Experiment: BLI, antibody on AHC2 sensor
Binder,Kd [nM],koff [s⁻¹],kon [M⁻¹ s⁻¹]
B4,36.1,0.00162,44800
B5,10.7,0.000485,45400
B6,23,0.00126,54800
B7,8.71,0.000365,41900
B8,40.9,0.00175,42800
B9,52.5,0.00217,41300
